Article PMC5460842

Target: FLAG-EGFR incorporated into nanolipoprotein particles (EGFR-NLP) (not stated ("mammalian")) (UniProt P00533)
Test: BLI; competition with biotinylated EGF on sensor, 100 nM EGFR-NLP; given as EC50

Substance cetuximab has an IC50 of 5.87 nM.
